Test results as given in publication PMC12304850, “Interfacing B‐DNA and DNA Mimic Foldamers”.

T1: SAP1 (UniProt P28324 1-93)
T1 sequence: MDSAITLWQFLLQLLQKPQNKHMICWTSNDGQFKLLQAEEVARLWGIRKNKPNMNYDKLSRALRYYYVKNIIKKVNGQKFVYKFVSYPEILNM


Columns and labels:
SAP1 = biological target: T1, SAP1; experiment: BLI; BLI on streptavidin biosensors; buffer with NaCl (concentration not in material), 0.01 mM EDTA, 0.05% Tween 20; pH and temperature not in material; conditions: protein: recombinant, label: biotin
PU.1 = PU.1 (UniProt P17947 165-270); experiment: as above

Binder	Kd (SAP1; 11-bp duplex, hybridized on immobilized ssDNA) [µM]	Kd (PU.1) [µM]	binding result (SAP1; duplex)
26 (dsDNA) DNA 1: GACAGGATGTG DNA 2: CACATCCTGTC	1.08 ± 0.006	0.33	
27 (dsDNA) DNA 1: GACAGCATGTG DNA 2: CACATGCTGTC		1.6	no binding
